These results are taken from article PMC7915732 (2021).

Assay [1] has as its target T1, cyclo[E-LYLAYPAH-K] (synthetic construct, lactam 1-10).
T1 chain: ELYLAYPAHK
In words: resin adsorption isotherm.

Assay [2] concerns the target T2, cyclo[E-LYLAYPAH-K] (synthetic construct, lactam 1-10).
T2 chain: ELYLAYPAHK
Briefly: yeast surface titration.

Bridge positions count the residues as written; N and C are the ends. Ends that are not written are not given here.

B1: YAP WW domains 165-271 (protein)
chain: FEIPDDVPLPAGWEMAKTSSGQRYFLNHIDQTTTWQDPRKAMLSQMNVTAPTSPPVQQNMMNSASGPLPDGWEQAMTQDGEIYYINHKNKTTSWLDPRLDPRFAMNQ
Take B1: the values for the Kd in assay [1] and in assay [2] were 2640 nM and 680 nM, respectively.

Usually Kd stands for the equilibrium constant for the complex coming apart.
